Reference: patent US12678474B2, “Screening of fixed-point coupling sites of cysteine-modified antibody-toxin conjugate (TDC)” (SICHUAN BAILI PHARMACEUTICAL CO. LTD., priority 2017, dated 2026)

Legend:
[1] = biological target: T1, Recombinant EGFRVIII-His*6 antigen (Homo sapiens, UniProt P00533, DELINS30-297G); assay: ELISA relative affinity for EGFRvIII; format: binding; details: EGFRvIII-coated plates, A450, read-out: EC50 (nM), mutant antibody affinity
T1 construct: His*6
Text: Insertion Mutation Modification and Parent Antibody 2A1 for EGFRvIII • ELISA was used to compare the relative affinities of 2A1-LC-Cys110ins-mc-vc-PAB-MMAE TDC, 2A1-LC-Cys111ins-mc-vc-PAB-MMAE TDC, 2A1-LC-Cys142ins-mc-vc-PAB-MMAE TDC, 2A1-HC-Cys254ins-mc-vc-PAB-MMAE TDC, 2A1-HC-Cys255ins-mc-vc-PAB-MMAE TDC, 2A1-HC-Cys258ins-mc-vc-PAB-MMAE TDC, 2A1-HC-Cys259ins-mc-vc-PAB-MMAE TDC, 2A1-HC-Cys354ins-mc-vc-PAB-MMAE TDC, 2A1-HC-Cys355ins-mc-vc-PAB-MMAE TDC, 2A1-HC-Cys357ins-mc-vc-PAB-MMAE TDC, 2A1-HC-Cys378ins-mc-vc-PAB-MMAE TDC, 2A1-HC-Cys379ins-mc-vc-PAB-MMAE TDC, 2A1-HC-Cys386ins-mc-vc-PAB-MMAE TDC, 2A1-HC-Cys387ins-mc-vc-PAB-MMAE TDC, 2A1-HC-Cys410ins-mc-vc-PAB-MMAE TDC, and 2A1 for EGFRvIII. The specific process used was as follows:
Recombinant […]-His*6 antigen was used to coat plates; fish skin gelatin was used as a seal; dilution of each insertion mutant antibody was performed separately, up to a maximum concentration 10 μg/ml and a 4-fold gradient dilution was performed for a total of 11 concentrations; HRP-labeled secondary antibodies were used for incubation; TMB was used for development and absorption detection was performed at 450 nm.

[2] = test system: EFGRvIII-overexpressing human glioma cell line U87-EGFRvIII; assay: MTS cytotoxicity (cell viability) assay, U87-EGFRvIII; format: cell-based; details: antibodies; 72 hours; read-out: IC50, U87MG-EGFRvIII (MTS)
Protocol: (§1) TDC cytotoxic activity was determined via the following experimental procedure: TDC was added to EGFR-overexpressing or […]-expressing human tumor cell culture medium, and cell viability was determined after 72 hours of cell culture. Cell-based in vitro experiments were used to determine cell viability, cytotoxicity and programmed cell death induced by TDC constituted by the present invention.
(§2) In vitro efficacy of antibody-toxin conjugates was determined via a cell proliferation assay. A CellTiter ^96® AqueousOne Solution Cell was Proliferation Assay purchased commercially from Promega Corp. (Madison, WI). CellTiter ^96® Aqueous One Solution Cell Proliferation Assay (a) is a colorimetric method used to detect the number of living cells in cell proliferation and cytotoxicity experiments. The above reagent contains the novel tetrazole compound [3-(4,5-dimethylthiazol-2-yl)-5-(3-carboxymethoxyphenyl)-2-(4-sulfophenyl)-2H-tetrazolium, inner salt; MTS) as well as an electronic coupling agent (phenazine ethosulfate; PES). […] This convenient “single solution” model is an improvement on the first generation of the CellTiter ^96® Aqueous Assay, in which the electronic coupling agent PMS was supplied separately from the MTS solution. MTS (Owen's reagent) is reduced by cellular organisms into a colored formazan product, which can be directly dissolved in culture medium (FIG. 1). This conversion is likely facilitated by NADPH NADH produced by dehydrogenase present in metabolically active cells. For the assay, a small amount of CellTiter ^96® Aqueous One Solution Reagent is added directly to the medium present in the wells of the culture plate, after which incubation is performed for 1 to 4 hours, followed by reading of the absorbance value at 490 nm using a microplate reader.
(§3) The amount of formazan product detected at 490 nm is proportional to the number of viable cells in culture. Because the formazan product of MTS is soluble in tissue culture medium, CellTiter ^96® Aqueous One Solution Assay requires fewer steps than the MTT or INT methods. A431 (EGFR-overexpressing cells) and U87-[…] (an […] mutant stable cell line) were used in the present invention as an investigative system for performing in vitro efficacy assays. In 96-well plates, cells were plated at 6000 cells/well and 24 hours later, antibody spiking was carried out. […] Cell viability was assayed via MTS 72 hours after treatment.

[3] = test system: EGFRwt-overexpressing human skin squamous cell carcinoma cell line A431; assay: MTS cytotoxicity (cell viability) assay, A431; format: cell-based; details: antibodies; 72 hours
Protocol: as §1, §2, §3

B1: 2A1-HC-Cys387ins: 2A1 antibody with cysteine inserted at heavy chain position 387 (SEQ ID NO: 42) (antibody)
heavy: DVQLQESGPSLVKPSQSLSLTCTVTGYSITSDFAWNWIRQFPGNKLEWMGYISYSGNTRYNPSLKSRISITRDTSKNQFFLQLNSVTIEDTATYYCVTAGRGFPYWGQGTLVTVSAASTKGPSVFPLAPSSKSTSGGTAALGCLVKDYFPEPVTVSWNSGALTSGVHTFPAVLQSSGLYSLSSVVTVPSSSLGTQTYICNVNHKPSNTKVDKRVEPKSCDKTHTCPPCPAPEFLGGPSVFLFPPKPKDTLMISRTPEVTCVVVDVSHEDPEVKFNWYVDGVEVHNAKTKPREEQYNSTYRVVSVLTVLHQDWLNGKEYKCKVSNKALPAPIEKTISKAKGQPREPQVYTLPPSRDELTKNQVSLTCLVKGFYPSDIAVEWESNGQPENNCYKTTPPVLDSDGSFFLYSKLTVDKSRWQQGNVFSCSVMHEALHNHYTQKSLSLSPG
light: DILMTQSPSSMSVSLGDTVSITCHSSQDINSNIGWLQQRPGKSFKGLIYHGTNLDDEVPSRFSGSGSGADYSLTISSLESEDFADYYCVQYAQFPWTFGGGTKLEIKRTVAAPSVFIFPPSDEQLKSGTASVVCLLNNFYPREAKVQWKVDNALQSGNSQESVTEQDSKDSTYSLSSTLTLSKADYEKHKVYACEVTHQGLSSPVTKSFNRGEC
Q: B1 was tested. Which EC50 [1] did it give?
A: 0.0452 nM

Q: What about the IC50 [2] of the same molecule?
A: > 10 µM

Q: And the IC50 [3]?
A: > 10 µM

B2: 2A1-HC-Cys410ins: 2A1 antibody with cysteine inserted at heavy chain position 410 (SEQ ID NO: 44) (antibody)
heavy: DVQLQESGPSLVKPSQSLSLTCTVTGYSITSDFAWNWIRQFPGNKLEWMGYISYSGNTRYNPSLKSRISITRDTSKNQFFLQLNSVTIEDTATYYCVTAGRGFPYWGQGTLVTVSAASTKGPSVFPLAPSSKSTSGGTAALGCLVKDYFPEPVTVSWNSGALTSGVHTFPAVLQSSGLYSLSSVVTVPSSSLGTQTYICNVNHKPSNTKVDKRVEPKSCDKTHTCPPCPAPEFLGGPSVFLFPPKPKDTLMISRTPEVTCVVVDVSHEDPEVKFNWYVDGVEVHNAKTKPREEQYNSTYRVVSVLTVLHQDWLNGKEYKCKVSNKALPAPIEKTISKAKGQPREPQVYTLPPSRDELTKNQVSLTCLVKGFYPSDIAVEWESNGQPENNYKTTPPVLDSDGSFFLYSKLTVDCKSRWQQGNVFSCSVMHEALHNHYTQKSLSLSPG
light: DILMTQSPSSMSVSLGDTVSITCHSSQDINSNIGWLQQRPGKSFKGLIYHGTNLDDEVPSRFSGSGSGADYSLTISSLESEDFADYYCVQYAQFPWTFGGGTKLEIKRTVAAPSVFIFPPSDEQLKSGTASVVCLLNNFYPREAKVQWKVDNALQSGNSQESVTEQDSKDSTYSLSSTLTLSKADYEKHKVYACEVTHQGLSSPVTKSFNRGEC
Q: Which EC50 [1] does the source give for B2 here?
A: 0.042 nM

Q: What about the IC50 [2] of the same molecule?
A: > 10 µM

Q: And the IC50 [3]?
A: > 10 µM
